The test addresses T1, recombinant hemagglutinin (HA) of 2009 pandemic virus A/Korea/01/2009 (KR01) (Influenza A virus A/Korea/01/2009 (H1N1), strain).
T1 construct: also called KR01 HA; H1N1 HA
Put plainly: crystal structure. As to conditions: both partners purified.

B1: Fab fragment from H1-specific monoclonal antibody GC0587 (Fab, V domains shown)
VH: VKLQQSGGGVVQPGGSLRLSCAASGFTFSDYDMSWIRQAPGKGLEWVSGILGGSERSYYRDSVKGRFTISRDNSRKTLYLQMNSLRAEDTAVYYCARHGSPGYTLYAWDYWGQGTMVTVSS
VL: DIQMTQSPASLAVSPGQRATITCRASESVSNYGINFINWFQQKPGQPPKLLIYTASNKGTGVPARFSGSGSGTDFTLTINPVEAEDTANYFCQQTKEVPYTFGGGTKLEIK
notes: also called Fab0587
For the molecule B1, the binding result is listed as “binds”.

These data come from publication PMC3935945, “Insight into Highly Conserved H1 Subtype-Specific Epitopes in Influenza Virus Hemagglutinin” (PLoS ONE, 2014).
